In patent publication US20150203577A1 (Chugai, published 2015):
Residue numbers refer to the chain shown, from its start.

B1: H237-MB290/MRAL-k0 (antibody, mouse IgG1, kappa)
heavy: QVQLQESGPGLVKPSETLSLTCAVSGHSISHDHAWSWVRQPPGEGLEWIGFISYSGITNYNPSLQGRVTISRDNSKNTLYLQMNSLRAEDTAVYYCARSLARTTAMDYWGEGTLVTVSSAKTTPPSVYPLAPGSAAQTNSMVTLGCLVKGYFPEPVTVTWNSGSLSSGVHTFPAVLQSDLYTLSSSVTVPSSTWPSETVTCNVAHPASSTKVDKKIVPRDCGCKPCICTAPEVSDVFIFPPKPKDVLTITLTPKVTCVVVDISKDDPEVQFSWFVDDVEVHTAQTQPREEQFNSTFRSVSELPIMHQDWLNGKEFKCRVNSAAFPAPIEKTISKTKGRPKAPQVYTIPPPKEQMAKDKVSLTCMITDFFPEDITVEWQWNGQPAENYKNTQPIMDTDGSYFVYSKLNVQKSNWEAGNTFTCSVLHEGLHNHHTEKSLSHSPGK
light: not shown
notes: copies: 2 + 2
B2: MB294 (antibody, mouse IgG1, kappa)
heavy: B1 heavy with A230V, V236E
light: not shown
notes: copies: 2 + 2
B3: H237-MB305/MRAL-k0 (antibody, mouse IgG1, kappa)
heavy: B1 heavy with P231E
light: not shown
notes: copies: 2 + 2
B4: MB301 (antibody, mouse IgG1, kappa)
heavy: B1 heavy with T229E, A230V, P231E
light: not shown
notes: copies: 2 + 2
B5: MB296 (antibody, mouse IgG1, kappa)
heavy: B1 heavy with A230V, S263A
light: not shown
notes: copies: 2 + 2
B6: MB299 (antibody, mouse IgG1, kappa)
heavy: B1 heavy with T229E
light: not shown
notes: copies: 2 + 2
B7: MB300 (antibody, mouse IgG1, kappa)
heavy: B1 heavy with T229E, A230D
light: not shown
notes: copies: 2 + 2
B8: H237-MB302/MRAL-k0 (antibody, mouse IgG1, kappa)
heavy: B1 heavy with T229E, A230V, S234E
light: not shown
notes: copies: 2 + 2
B9: MB289 (antibody, mouse IgG1, kappa)
heavy: B1 heavy with T229E, A230V
light: not shown
notes: copies: 2 + 2
B10: MB295 (antibody, mouse IgG1, kappa)
heavy: B1 heavy with A230V, V236H
light: not shown
notes: copies: 2 + 2
B11: MB293 (antibody, mouse IgG1, kappa)
heavy: B1 heavy with A230V, S234E
light: not shown
notes: copies: 2 + 2
B12: MB291 (antibody, mouse IgG1, kappa)
heavy: B1 heavy with A230D
light: not shown
notes: copies: 2 + 2
B13: MB303 (antibody, mouse IgG1, kappa)
heavy: B1 heavy with T229E, A230V, V236E
light: not shown
notes: copies: 2 + 2
B14: H237-MB337/MRAL-k0 (antibody, mouse IgG1, kappa)
heavy: B1 heavy with T229E, S234E
light: not shown
notes: copies: 2 + 2
B15: MB292 (antibody, mouse IgG1, kappa)
heavy: B1 heavy with A230V, P231E
light: not shown
notes: copies: 2 + 2
B16: H237-MB497/MRAL-k0 (antibody, mouse IgG1, kappa)
heavy: B1 heavy with T229E, A230P, P231N, S234E, N320D, K330R
light: not shown
notes: copies: 2 + 2
B17: H237-MB494/MRAL-k0 (antibody, mouse IgG1, kappa)
heavy: B1 heavy with T229E, A230P, P231N, S234E, S294L, K330R
light: not shown
notes: copies: 2 + 2
B18: H237-MB496/MRAL-k0 (antibody, mouse IgG1, kappa)
heavy: B1 heavy with T229E, A230P, P231N, S234E, S294M, K330R
light: not shown
notes: copies: 2 + 2
B19: H237-MB498/MRAL-k0 (antibody, mouse IgG1, kappa)
heavy: B1 heavy with T229E, A230P, P231N, S234E, S294L, N320D, K330R
light: not shown
notes: copies: 2 + 2
B20: H237-MB495/MRAL-k0 (antibody, mouse IgG1, kappa)
heavy: B1 heavy with T229E, A230P, P231N, S234E, S294M, N320D
light: not shown
notes: copies: 2 + 2
B21: H237-MB499/MRAL-k0 (antibody, mouse IgG1, kappa)
heavy: B1 heavy with T229E, A230P, P231N, S234E, S294M, N320D, K330R
light: not shown
notes: copies: 2 + 2

molecular target: T1, mouse FcγRII (mouse, UniProt P08101 30-210); test: SPR Biacore T200, KD ratio
T1 construct: also called mFcγRII; mFcgRII
T1 sequence: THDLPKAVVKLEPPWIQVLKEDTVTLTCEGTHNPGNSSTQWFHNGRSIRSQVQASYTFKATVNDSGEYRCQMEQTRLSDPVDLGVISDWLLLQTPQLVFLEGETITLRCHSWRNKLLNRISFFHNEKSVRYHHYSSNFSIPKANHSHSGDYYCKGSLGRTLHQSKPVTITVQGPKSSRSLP
From the text: (§1) The antibody H chain variable region used was the variable region H237 (SEQ ID NO: 1) of the H chain VH3-IgG1 of the anti-IL-6 receptor antibody Fv4-IgG1 described in WO2009/125825. The antibody L chain commonly used was the L chain MRAL-k0 (SEQ ID NO: 2) of the anti-IL-6 receptor antibody tocilizumab. […] The resulting variant group was designated as MB110 variants. These variants were expressed and purified by the method of Reference Example 1 and evaluated for their binding to mFcγRII and mFcγRIII by the method of Reference Example 2 using Biacore T200.
(§2) Each altered antibody was analyzed for its interaction with each Fcγ receptor prepared above using Biacore T100 (GE Healthcare Japan Corp.), Biacore T200 (GE Healthcare Japan Corp.), Biacore A100, or Biacore 4000. The running buffer used was HBS-EP+ (GE Healthcare Japan Corp.). The assay temperature was set to 25° C. The sensor chips used were chips prepared by immobilizing Protein L (ACTIGEN or BioVision) onto Series S Sensor Chip CM5 (GE Healthcare Japan Corp.) or Series S Sensor Chip CM4 (GE Healthcare Japan Corp.) by the amine coupling method.
(§3) In order to calculate the KD value of each altered antibody for FcγR, kinetic analysis was conducted according to the following method: first, the antibody of interest was captured onto any of these chips and allowed to interact with mFcγR diluted with a running buffer. For the obtained sensorgram, the assay results were globally fit into the 1:1 Langmuir binding model using Biacore Evaluation Software to calculate an association rate constant ka (L/mol/s) and a dissociation rate constant kd (1/s). From these values, the dissociation constant KD (mol/L) was calculated.

Binder | Relative mFcγRII-binding activity (MB110 = 1) | relative mFcγRII-binding activity (mIgG1 = 1)
B1 | 2.16 fold | 26.5 fold
B2 | 0.62 fold | 7.6 fold
B3 | 2.12 fold | 26 fold
B4 | 3.52 fold | 43.2 fold
B5 | 1.71 fold | 21 fold
B6 | 4.96 fold | 60.8 fold
B7 | 4.25 fold | 52.3 fold
B8 | 4.37 fold | 53.7 fold
B9 | 3.57 fold | 43.8 fold
B10 | 0.62 fold | 7.6 fold
B11 | 3.25 fold | 39.9 fold
B12 | 3.47 fold | 42.6 fold
B13 | 0.64 fold | 7.8 fold
B14 | 5.98 fold | 73.4 fold
B15 | 2.82 fold | 34.6 fold

Molecular target: T2, mouse FcγRIII (mouse, UniProt P08508 31-215)
T2 construct: also called mFcγRIII; mFcgRIII
T2 chain: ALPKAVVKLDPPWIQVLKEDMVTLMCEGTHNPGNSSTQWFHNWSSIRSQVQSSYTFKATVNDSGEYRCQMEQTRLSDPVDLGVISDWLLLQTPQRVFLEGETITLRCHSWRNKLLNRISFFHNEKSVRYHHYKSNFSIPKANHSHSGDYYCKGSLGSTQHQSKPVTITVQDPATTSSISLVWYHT
Test: SPR Biacore T200, KD ratio
From the text: as §1, §2, §3

Binder | Relative mFcγRIII-binding activity (MB110 = 1) | relative mFcγRIII-binding activity (mIgG1 = 1)
B1 | 1.37 fold | 5.5 fold
B2 | 0.47 fold | 1.9 fold
B3 | 0.94 fold | 3.8 fold
B4 | 1.16 fold | 4.6 fold
B5 | 1.39 fold | 5.6 fold
B6 | 1.61 fold | 6.5 fold
B7 | 1.41 fold | 5.7 fold
B8 | 1.11 fold | 4.5 fold
B9 | 1.23 fold | 4.9 fold
B10 | 0.42 fold | 1.7 fold
B11 | 1.01 fold | 4.1 fold
B12 | 1.66 fold | 6.7 fold
B13 | 0.32 fold | 1.3 fold
B14 | 1.15 fold | 4.6 fold
B15 | 1.02 fold | 4.1 fold

molecular target: T3, mouse FcγRII extracellular domain, C-terminally His-tagged (mouse, UniProt P08101 30-210); test: SPR Biacore T200, KD ratio
T3 construct: the whole entry is named; also called mFcγRII; mFcgRII
T3 sequence: T1 sequence

Binder | relative mFcγRII-binding activity (MB390 = 1) | relative mFcγRII-binding activity (mIgG1 = 1)
B16 | 1.48 fold | 773 fold
B17 | 4.05 fold | 2110 fold
B18 | 1.7 fold | 884 fold
B19 | 6.4 fold | 3340 fold
B20 | 1.2 fold | 623 fold
B21 | 1.9 fold | 992 fold

Molecular target: T4, mouse FcγRIII extracellular domain, C-terminally His-tagged (mouse, UniProt P08508 31-215)
T4 construct: the whole entry is named; also called mFcγRIII; mFcgRIII
T4 chain: T2 chain
Test: SPR Biacore T200, KD ratio

Binder | relative mFcγRIII-binding activity (MB390 = 1) | relative mFcγRIII-binding activity (mIgG1 = 1)
B16 | 1.32 fold | 15.7 fold
B17 | 4.99 fold | 59.4 fold
B18 | 1.71 fold | 20.3 fold
B19 | 7.15 fold | 85.1 fold
B20 | 1.45 fold | 17.2 fold
B21 | 2.03 fold | 24.2 fold
